Experimental findings from patent US10736971B2, “Peptide-based molecules for modulating car expression or accessibility and uses thereof” (Wright State University, priority 2015, dated 2020) are described below.

For the assay, the system named is AdV-β-Gal. Briefly: AdV-β-Gal transduction of transfected CAR-deficient CHO-K1 cells. It counts as cell-based, Chinese hamster. Conditions: CHO-K1 transfected with CAR^Ex8, MAGI-1 and PDZ domain plasmids, MOI 100. The source says: CAR-deficient CHO-K1 cells were A) single, B) double, or C) triple transfected with plasmids encoding CAR^Ex8, MAGI-1 (black bars), PDZ1 domain (dotted bars), or PDZ3 domain (white bars), and balanced with empty pcDNA3.1 plasmid, followed by AdV-β-Gal (MOI 100) transduction. CHO-K1 cells were double transfected with CAR^Ex8 and pcDNA3.1, MAGI-1, PDZ3, or PDZ1 and analyzed for D) total CAR^Ex8 protein or E) cell-surface biotinylated CAR^Ex8 protein expression. Quantification of at least three individual experiments is shown in all bar graphs. *p<0.05.

B1: PDZ1 domain: MAGI-1 PDZ1 decoy domain, expressed from transfected plasmid in CHO-K1 cells (protein)
chain: RKSSRGFGFTVVGGDEPDEFLQIKSLVLDGPAALDGKMETGDVIVSVNDTCVLGHTHAQVVKIFQSIP
modifications: PEPTIDE WILL BE CREATED USING CONVENTIONAL MEANS
notes: MAGI-1 PDZ1 decoy domain, expressed from transfected plasmid in CHO-K1 cells
For the molecule B1, the “Adenovirus infection (AdV-β-Gal transduction)” value was “inhibits MAGI-1-mediated CAR^Ex8 suppression to allow adenovirus infection”.

B2: MAGI-1 PDZ3 domain: MAGI-1 PDZ3 decoy domain, expressed from transfected plasmid in CHO-K1 cells (protein)
chain: KETGFGFRILGGNEPGEPIYIGHIVPLGAADTDGRLRSGDELICVDGTPVIGKSHQLVVQLMQQAAKQGHVNLTVR
modifications: PEPTIDE WILL BE CREATED USING CONVENTIONAL MEANS
notes: MAGI-1 PDZ3 decoy domain, expressed from transfected plasmid in CHO-K1 cells
Take B2: the “Adenovirus infection (AdV-β-Gal transduction)” value was “decreases”.
